Laboratory results reported in US20180155451A1 (published 2018).
Substitutions are numbered along the chain they refer to. Names may count otherwise. Like-named read-outs stand apart in the source and are kept apart here.

T1: FcgRIIa R type extracellular domain, C-terminal His tag (human, UniProt P12318 34-217)
T1 construct: extracellular domain; also called FcγRIIa R; 2aR; not shown: His tag attached to the C terminus
T1 sequence (looked up): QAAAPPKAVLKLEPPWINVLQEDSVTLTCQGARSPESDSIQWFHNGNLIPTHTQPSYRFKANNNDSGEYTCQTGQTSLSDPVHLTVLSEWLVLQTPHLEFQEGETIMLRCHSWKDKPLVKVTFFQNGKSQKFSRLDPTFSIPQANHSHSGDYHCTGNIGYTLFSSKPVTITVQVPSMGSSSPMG

T2: FcgRIIa H type extracellular domain, C-terminal His tag (human, UniProt P12318 34-217)
T2 construct: extracellular domain; also called FcγRIIa H; 2aH; not shown: His tag attached to the C terminus
T2 sequence (looked up): T1 sequence (looked up) with R134H

T3: FcgRIIb extracellular domain, C-terminal His tag (human, UniProt P31994 43-217)
T3 construct: extracellular domain; also called FcγRIIb; 2b; not shown: His tag attached to the C terminus
T3 sequence (looked up): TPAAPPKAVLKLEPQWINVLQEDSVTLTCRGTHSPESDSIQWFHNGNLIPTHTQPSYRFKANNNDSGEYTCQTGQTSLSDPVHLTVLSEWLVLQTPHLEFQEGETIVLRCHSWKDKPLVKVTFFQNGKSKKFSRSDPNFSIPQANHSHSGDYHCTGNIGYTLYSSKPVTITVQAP

T4: FcgRIIa R (human, UniProt P12318 34-217)
T4 construct: extracellular domain; also called FcγRIIa R; FcγRIIa type R; not shown: His tag attached to the C terminus
T4 sequence (looked up): T1 sequence (looked up)

T5: FcgRIIa H (human, UniProt P12318 34-217)
T5 construct: extracellular domain; also called FcγRIIa H; FcγRIIa type H; not shown: His tag attached to the C terminus
T5 sequence (looked up): T1 sequence (looked up) with R134H

T6: FcgRIIb (human, UniProt P31994 43-217)
T6 construct: extracellular domain; Expressed in FreeStyle293 cells and purified; used as analyte in Biacore; also called FcγRIIb; CD32B; not shown: His tag attached to the C terminus
T6 sequence (looked up): T3 sequence (looked up)

B1: H240-FA020/H240-FB083/L73-k0 (antibody, human IgG1, kappa)
heavy 1: QDQLVQSGAEVKKPGASVKVSCKASGFNIKDTYIQWVRQAPGQGLEWMGRIDPLRKQTKYREKFEGRVTITADTSTNTAYMELSSLRSEDTAVYYCVRSGREFDYWGQGTLVTVSSASTKGPSVFPLAPSSKSTSGGTAALGCLVKDYFPEPVTVSWNSGALTSGVHTFPAVLQSSGLYSLSSVVTVPSSSLGTKTYTCNVNHKPSNTKVDKKVEPKSCDKTHTCPPCPAPEYYWGPSVFLFPPKPKDTLMISRTPEVTCVVVDVSDEEPEVKFNWYVDGVEVHNAKTKPREEQYNATYRVVSVLTVLHQDWLNGKEYKCKVSNKALPAPIEKTISKAKGQPREPQVYTLPPSRKEKTKNQVSLTCLVKGFYPSDIAVEWESNGQPENNYKTTPPVLDSDGSFFLYSKLTVDKSRWQQGNVFSCSVMHEALHNRYTQKSLSLSP
heavy 2: QDQLVQSGAEVKKPGASVKVSCKASGFNIKDTYIQWVRQAPGQGLEWMGRIDPLRKQTKYREKFEGRVTITADTSTNTAYMELSSLRSEDTAVYYCVRSGREFDYWGQGTLVTVSSASTKGPSVFPLAPSSKSTSESTAALGCLVEDYFPEPVTVSWNSGALTSGVHTFPAVLQSSGLYSLSSVVTVPSSNFGTQTYTCNVDHKPSNTKVDKTVEPKSCDKTHTCPPCPAPELLGGPSVFLFPPKPKDTLMISRTPEVTCVVVDVSHEEPEVQFNWYVDGVEVHNAETKPREEQYNSTYRVVSVLTVLHQDWLNGKEYKCKVSNDALPMPIEETISKAKGQPREPQVYTLPPSREEMTKNQVSLTCLVKGFYPSDIAVEWESNGQPENNYKTTPPVLDSDGSFFLYSKLTVDKSRWQQGNVFSCSVMHEALHNHYTQESLSLSP
light: DIQMTQSPSSLSASVGDRVTITCRASQDIHKYIAWYQQKPGQAPRLLIQYTSTLQPGVPSRFSGSGSGTDYTFTISSLQPEDIATYYCLQYEQLRTFGGGTKVEIKRTVAAPSVFIFPPSDEQLKSGTASVVCLLNNFYPREAKVQWKVDNALQSGNSQESVTEQDSKDSTYSLSSTLTLSKADYEKHKVYACEVTHQGLSSPVTKSFNRGEC
notes: Heterodimerized anti-epiregulin IgG1 antibody
B2: H240-Kn133/H240-Hl068/L73-k0 (antibody, human IgG1, kappa)
heavy 1: QDQLVQSGAEVKKPGASVKVSCKASGFNIKDTYIQWVRQAPGQGLEWMGRIDPLRKQTKYREKFEGRVTITADTSTNTAYMELSSLRSEDTAVYYCVRSGREFDYWGQGTLVTVSSASTKGPSVFPLAPSSKSTSGGTAALGCLVKDYFPEPVTVSWNSGALTSGVHTFPAVLQSSGLYSLSSVVTVPSSSLGTQTYICNVNHKPSNTKVDKKVEPKSCDKTHTCPPCPAPELLGGPSVFLFPPKPKDTLMISRTPEVTCVVVDVSHEEPEVKFNWYVDGVEVHNAKTKPREEQYNSTYRVVSVLTVLHQDWLNGKEYKCKVSNDALPKPIEETISKAKGQPREPQVCTLPPSRDELTKNQVSLWCLVKGFYPSDIAVEWESNGQPENNYKTTPPVLDSDGSFFLYSKLTVDKSRWQQGNVFSCSVMHEALHNHYTQKSLSLSP
heavy 2: B2 heavy 1 with C348Y, D355C, W365S, L367A, Y406V
light: B1 light
notes: Anti-EREG IgG1 called homodimerized: both H chains carry D270E/K326D/A330K/K334E; also called H240-Kn133/H240-HI068/L73-k0
B3: H240-Kn115/H240-Hl076/L73-k0 (antibody, human IgG1, kappa)
heavy 1: B1 heavy 1 with K195Q, T198I, S238M, Y348C, K355D, K357L, T365W, R434H
heavy 2: B2 heavy 1 with K329M, C348Y, D355C, W365S, L367A, Y406V
light: B1 light
notes: Heterodimerized anti-EREG IgG1: Kn115 is H240-Kn072 with S239M
B4: H240-FA020/H240-FB084/L73-k0 (antibody, human IgG1, kappa)
heavy 1: B1 heavy 1
heavy 2: B1 heavy 2 with N383E
light: B1 light
notes: as for B1
B5: H240-FA020/H240-FB082/L73-k0 (antibody, human IgG1, kappa)
heavy 1: B1 heavy 1
heavy 2: B1 heavy 2 with E136G, S137E, N191S, F192L, T198I, D202N, T213K, N383E
light: B1 light
notes: as for B1

What was measured:
[1] = biological target: T1, FcgRIIa R type extracellular domain, …; assay: SPR (Biacore), antibody captured on chip, FcgR extracellular domain as analyte, 25 C, 1:1 Langmuir fit; experiment #3
Method: (§1) Antibodies of interest were analyzed for the interaction to FcgR according to the method described in Reference Example 8.
(§2) Analysis of interaction between obj ective antibody and the FcγR was carried out using Biacore T100 (GE Healthcare), Biacore T200, Biacore A100, and Biacore 4000. HBS-EP+ (GE Healthcare) was used as the running buffer, and the measurement temperature was set to 25° C. Chips produced by immobilizing the antigen peptide by the amine coupling method to a Series S sensor Chip CM5 (GE Healthcare), chips produced by allowing preliminarily biotinylated antigen peptides to interact with and immobilize onto a Series S Sensor Chip SA (certified) (GE Healthcare), chips produced by immobilizing Protein L (ACTIGEN, BioVision) to Series S Sencor Chip CM5 (GE Healthcare), or chips produced by immobilizing Protein A/G (Thermo Scientific) to Series S Sencor Chip CM5 (GE Healthcare) were used. Antibodies of interest were captured onto these chips, and allowed to interact to each FcγR diluted with running buffer. To regenerate and repeatedly use the chip, the antibodies captured onto the chip were washed off by reacting 10 mM glycine-HCl, pH 1.5.

[2] = biological target: T2, FcgRIIa H type extracellular domain, …; assay: as above
Method: as §1, §2

[3] = biological target: T3, FcgRIIb extracellular domain, …; assay: as above
Method: as §1, §2

[4] = biological target: T7, FcgRIIIa F type extracellular domain, C-terminal His tag (human, UniProt P08637 17-208); assay: as above
T7 construct: extracellular domain; also called FcγRIIIa F; 3aF; not shown: His tag attached to the C terminus
T7 sequence (P08637 17-208): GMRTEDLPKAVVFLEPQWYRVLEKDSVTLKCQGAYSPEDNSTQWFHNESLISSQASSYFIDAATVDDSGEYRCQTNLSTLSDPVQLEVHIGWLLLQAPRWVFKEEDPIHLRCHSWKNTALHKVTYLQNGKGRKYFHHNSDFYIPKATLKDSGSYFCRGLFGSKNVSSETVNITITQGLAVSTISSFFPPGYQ
Method: as §1, §2

[5] = biological target: T8, FcgRIIIa V type extracellular domain, C-terminal His tag (human, UniProt P08637 17-208); assay: as above
T8 construct: extracellular domain; also called FcγRIIIa V; 3aV; not shown: His tag attached to the C terminus
T8 sequence (P08637 17-208 F176V limits assumed): as the sequence (P08637 17-208) above, with F160V counted along it
Method: as §1, §2

[6] = biological target: T9, FcgRI extracellular domain, C-terminal His tag (human, UniProt P12314 16-292); assay: as above
T9 construct: extracellular domain; also called FcγRIa; FcgRIa; not shown: His tag attached to the C terminus
T9 sequence (P12314 16-292): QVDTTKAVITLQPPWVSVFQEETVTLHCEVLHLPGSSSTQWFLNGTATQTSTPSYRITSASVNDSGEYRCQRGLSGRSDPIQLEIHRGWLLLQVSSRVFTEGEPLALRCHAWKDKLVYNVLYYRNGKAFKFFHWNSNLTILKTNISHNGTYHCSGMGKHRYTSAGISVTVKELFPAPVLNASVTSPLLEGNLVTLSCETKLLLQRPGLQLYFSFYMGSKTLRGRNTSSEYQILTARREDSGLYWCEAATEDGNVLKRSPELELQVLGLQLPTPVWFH
Method: as §1, §2

FcgRIIa R [7] = biological target: T4, FcgRIIa R; assay: SPR (Biacore), antibody captured on chip, FcgR extracellular domain as analyte
Method: as §2

FcgRIIa H [8] = biological target: T5, FcgRIIa H; assay: as above
Method: as §2

FcgRIIIa F [9] = biological target: T10, FcgRIIIa F (human, UniProt P08637 17-208); assay: as above
T10 construct: extracellular domain; also called FcγRIIIa F; not shown: His tag attached to the C terminus
T10 sequence (P08637 17-208): as the sequence (P08637 17-208) above
Method: as §2

FcgRIIIa V [10] = biological target: T11, FcgRIIIa V (human, UniProt P08637 17-208); assay: as above
T11 construct: extracellular domain; also called FcγRIIIa V; not shown: His tag attached to the C terminus
T11 sequence (P08637 17-208 F176V limits assumed): as the sequence (P08637 17-208) above, with F160V counted along it
Method: as §2

FcgRIa = biological target: T12, FcgRIa (human, UniProt P12314 16-292); assay: as above
T12 construct: extracellular domain; Expressed in FreeStyle293 cells and purified; used as analyte in Biacore; also called FcγRIa; FcγRI; not shown: His tag attached to the C terminus
T12 sequence (P12314 16-292): as the sequence (P12314 16-292) above
Method: (§3) H240-Kn113 (SEQ ID NO: 92) resulting from introduction of Y234E and Y235N into H240-Kn072, H240-Kn115 (SEQ ID NO: 93) resulting from introduction of S239M into H240-Kn072, and H240-Kn125 (SEQ ID NO: 94) resulting from introduction of Y235Q and S239M into H240-Kn072 were prepared according to the method described in Reference Example 1.
as §2

FcgRIIa R [11] = biological target: T4, FcgRIIa R; assay: as above; remark: listed apart in the source
Method: as §3, §2

FcgRIIa H [12] = biological target: T5, FcgRIIa H; assay: as above; remark: listed apart in the source
Method: as §3, §2

FcgRIIb = biological target: T6, FcgRIIb; assay: as above
Method: as §3, §2

FcgRIIIa F [13] = biological target: T10, FcgRIIIa F; assay: as above; remark: listed apart in the source
Method: as §3, §2

FcgRIIIa V [14] = biological target: T11, FcgRIIIa V; assay: as above; remark: listed apart in the source
Method: as §3, §2

Row | Binder | Kd [1] | Kd [2] | Kd [3] | Kd [4] | Kd [5] | Kd [6] | Kd (FcgRIIa R [7]) | Kd (FcgRIIa H [8]) | Kd (FcgRIIIa F [9]) | Kd (FcgRIIIa V [10]) | Kd (FcgRIa) | Kd (FcgRIIa R [11]) | Kd (FcgRIIa H [12]) | Kd (FcgRIIb) | Kd (FcgRIIIa F [13]) | Kd (FcgRIIIa V [14])
1 | B1 | 230 nM | 65 nM | 1000 nM | 3.4 nM | 1.1 nM | 0.12 nM |  |  |  |  |  |  |  |  |  | 
2 | B2 |  |  |  |  |  |  | 450 nM | 160 nM | 120 nM | 14 nM |  |  |  |  |  | 
3 | B3 |  |  |  |  |  |  |  |  |  |  | 0.27 nM | 130 nM | 62 nM | 1300 nM | 1.4 nM | 0.43 nM
4 | B4 | 220 nM | 57 nM | 1400 nM | 3.5 nM | 1 nM | 0.068 nM |  |  |  |  |  |  |  |  |  | 
5 | B5 | 270 nM | 69 nM | 1200 nM | 3.4 nM | 1.1 nM | 0.079 nM |  |  |  |  |  |  |  |  |  | 
